The source of these data is US20030036181A1.

For this test, the target named is macrophage mannose receptor on J774E murine monocyte/macrophage cells (murine) (UniProt Q61830). The test is described as follows: cell-based or functional assay.

“Cerezyme (from UniProt P04062 40-536) (enzyme)”: the Vmax for uptake in the J774E macrophage cell line is 0.52.
